In patent US20170210824A1 (SALK INSTITUTE FOR BIOLOGICAL STUDIES, published 2017):
Where no end group is shown, it is not given here. [ ]: non-standard residue; d: D form. pY = N[C@@H](Cc1ccc(OP(=O)(O)O)cc1)C(=O)O

Columns and labels:
[1] = biological target: T1, Nck pY105 peptide (CGERLpYDLNMPAYVK); test: pTyr peptide dot blot
T1 construct: also called pTyr (NCK) peptide; pTyr peptide (Nck pY105)
T1 peptide: CGERL[pY]DLNMPAYVK

[2] = biological target: T2, Nck Y105 peptide (CGERLYDLNMPAYVK); test: pTyr peptide dot blot
T2 construct: also called unphosphorylated Nck peptide
T2 peptide: CGERLYDLNMPAYVK

[3] = biological target: T3, Eck (Ephrin A2) pY588 peptide (CLKPLKTpYVD); test: pTyr peptide dot blot
T3 construct: also called Eck/EphA2 pTyr peptide
T3 peptide: CLKPLKT[pY]VD

[4] = biological target: T4, Eck (Ephrin A2) Y588 peptide (CLKPLKTYVD); test: pTyr peptide dot blot
T4 construct: also called unphosphorylated Eck peptide
T4 peptide: CLKPLKTYVD

[5] = biological target: T5, FAK pY397 peptide (AVSVSETDDpYAEIIDEEDTYT) (phosphotyrosine at position 10 (pY397)); test: pTyr peptide dot blot
T5 construct: also called FAK pTyr peptide
T5 peptide: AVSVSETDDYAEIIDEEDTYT

[6] = biological target: T6, FLAG-NME1 with 1-pHis, in stably transfected HEK293 cells (UniProt P15531 1-152, limits assumed, 1-phosphohistidine (generated in vivo)); test: immunoblot of FLAG-NME1 293 cell lysates
T6 construct: not shown: FLAG tag
T6 sequence (P15531 whole entry): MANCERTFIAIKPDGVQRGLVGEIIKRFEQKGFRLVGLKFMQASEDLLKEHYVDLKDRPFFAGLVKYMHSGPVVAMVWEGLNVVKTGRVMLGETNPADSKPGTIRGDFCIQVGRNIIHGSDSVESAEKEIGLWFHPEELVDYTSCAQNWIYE
Description: Immunoblotting with anti-pHis antibodies: In general, immunoblotting with anti-pHis antibodies was performed with modifications to standard procedures to help preserve pHis for detection. Buffers were adjusted to pH 8-9 to stabilize pHis and methods were modified to avoid heating samples. Protein samples were prepared in pH 8.8 sample buffer (5×=10% SDS, 250 mM Tris-HCl, pH 8.8, 0.02% Bromophenol blue, 50% glycerol, 50 mM EDTA, 500 mM DTT) for electrophoresis. Mammalian whole cell lysates were prepared by rinsing 70-100% confluent 10 cm² dishes twice with 5 ml cold TD buffer (TBS −/−, pH 8). Cells were scraped directly into 2× pH 8.8 sample buffer, incubated on ice and a cup horn sonicator was used (3-5×5 sec bursts) to disrupt cells and shear DNA. Lysates were clarified by centrifugation (14,000×g for 5-15 min at 4° C.) and analyzed immediately using freshly prepared Bis-Tris polyacrylamide minigels with a modified, pH 8.8 stacking gel and either 10% or 12.5% resolving gels. Electrophoresis buffer recipes were as follows: Running Buffer: (1×20 L, pH 8.5) 20 g SDS, 60 g Trizma Base, 288 g glycine, dH₂0 to 20 L, Transfer Buffer: (1×4 L, pH 8.5) 56.7 g glycine, 4 g SDS, 12 g Trizma Base, 800 ml MeOH, dH₂0 to 4 L. All electrophoresis steps were performed at 4° C. and samples were resolved at 90-100V for 2-3 hr. […]

Measured: binding result

B1: 3-pHis mAb SC39-4 (antibody, V domains shown)
VH: ESGGRLVTPGGSLTLTCTVSGFSLSRYNMGWVRQAPGKGLEWIGWIPFRGSLKYATWATGRFTISRTSTTVDLRMTGLTAADTATYFCVRSSDGFDLWGPGTLVTVSS
VL: QFVMTQTPASVEAVVGGTVTIKCQASRDTGDGLIWYQQKPGQPPKRLIYKASTVASGVPSRFKGRGSGTDFTLTISDLECADAATYYCHSNFYNRWTYGNAFGGGTEVVVKG
notes: Rabbit hybridoma monoclonal IgG; also called anti-3-pHis mAb SC39-4; SC39s (subclones of MC39)
no binding: all assays above
